The target of assay [1] is TgSNF2L (aa 1 to 1556) (Toxoplasma gondii). As to the kind of experiment: SEC-MALS. In general terms: In gel filtration, larger molecules generally elute earlier.
The target is the same in assay [2]. Description: mass photometry.
The target in assay [3] is TgSNF2L Hydra domain (886-1057) (Toxoplasma gondii). As to the kind of experiment: SEC-MALS.
Assay [4] shares this target. Description: native gel or EMSA. A general note: In EMSA bound probe runs differently from free probe, usually more slowly.
Assay [5] shares this target. Description: mass photometry.
Assay [6] concerns the target TgSNF2LΔHydra (aa 1 to 1556 with an internal deletion between aa 880 and 1040) (Toxoplasma gondii). Description: SEC-MALS.
Assay [7] has the same target. Description: mass photometry.

Several values for one entry are separate records, joined by “and”; a condition that tells them apart may be missing. Identical values can stand only once.

As a reminder, the stoichiometry N is a count of units in the complex or per binding partner. On to TgSNF2L (aa 1 to 1556) (enzyme), for which the stoichiometry N in assay [1] turned out to be 4. For the same substance, in assay [2], the percent of particles dimeric was 11%; the percent of particles monomeric is 22%; the percent of particles tetrameric and bigger is 59%.

As to “TgSNF2L Hydra domain (886-1057) (domain or fragment)”, the stoichiometry N in assay [3] is 10; in assay [4] it was 10 and 20; in assay [5] it was 10.

In turn, “TgSNF2LΔHydra (aa 1 to 1556 with an internal deletion between aa 880 and 1040) (enzyme)” came in with a stoichiometry N in assay [6] of 2. In addition, in assay [7], the percent of particles monomeric and dimeric was determined as 71%; the percent of particles tetrameric and higher came out at 19%.
